The source of these data is patent US20050214287A1 (published 2005).

Assay [1] deals with CXCR4 (human) (UniProt P61073). Put plainly: competition of 125I SDF-1α on CEM-NKr cells.
The target of assay [2] is T1, CXCR4 (human, UniProt P61073 1-352).
T1 construct: whole, on cells; also called the SDF-1 receptor expressed on CEM-NKr; the hallmark SDF-1 receptor
In words: displacement of 125I SDF-1α on CEM-NKr cells, DisplaceMax panel. For orientation: Displacement assays read how much labelled ligand stays bound in the presence of the test substance.

T1 sequence (P61073 whole entry): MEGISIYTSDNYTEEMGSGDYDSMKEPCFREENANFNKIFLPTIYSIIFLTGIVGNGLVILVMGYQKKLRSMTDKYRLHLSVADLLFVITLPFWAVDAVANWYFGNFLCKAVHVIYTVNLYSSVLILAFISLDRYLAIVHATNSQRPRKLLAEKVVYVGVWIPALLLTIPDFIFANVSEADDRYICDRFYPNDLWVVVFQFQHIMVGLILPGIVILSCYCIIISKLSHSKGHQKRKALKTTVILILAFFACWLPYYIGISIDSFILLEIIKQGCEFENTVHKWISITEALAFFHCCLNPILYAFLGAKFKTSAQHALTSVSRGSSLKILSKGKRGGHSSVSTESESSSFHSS
CXCR4 (human), sequence (P61073 whole entry): as above

As usually defined, the IC50 is the concentration at which inhibition is half-maximal. Lower therefore signals greater potency in that assay. For “SDF-1β (human) (from UniProt P48061 22-93) (ligand)”, the IC50 in assay [1] was found to be 1.5 nM.

B1: I-TAC (mouse) (ligand, UniProt Q9JHH5 22-100, looked up)
chain: FLMFKQGRCLCIGPGMKAVKMAEIEKASVIYPSNGCDKVEVIVTMKAHKRQRCLDPRSKQARLIMQAIEKKNFLRRQNM
notes: also called CXCL11
Regarding B1, the binding result in assay [2] is recorded as “no binding”.
